Measurements reported in PMC11145777.

Target: native H3 (human (endogenous in HeLa)) (UniProt P68431)
Test: co-IP; native (unfixed) ChIP on mono-nucleosomes: native CpA from untransfected HeLa, GFP-CpA and HA-CpA from transfected HeLa, Western for H1.5 (three antibodies) and H2A; H3 ChIP done sequentially after the native CpA ChIP

fold affinity against native CpA: 13 fold
Substance: linker histone H1.5 (from UniProt P16401 1-226) (natural protein)
